B1: WW domain binding protein VOPP1 (Homo sapiens), Q96AW1 (parent)
chain: MRRQPAKVAALLLGLLLECTEAKKHCWYFEGLYPTYYICRSYEDCCGSRCCVRALSIQRLWYFWFLLMMGVLFCCGAGFFIRRRMYPPPLIEEPAFNVSYTRQPPNPGPGAQQPGPPYYTDPGGPGMNPVGNSMAMAFQVPPNSPQGSVACPPPPAYCNTPPPPYEQVVKAK
partner: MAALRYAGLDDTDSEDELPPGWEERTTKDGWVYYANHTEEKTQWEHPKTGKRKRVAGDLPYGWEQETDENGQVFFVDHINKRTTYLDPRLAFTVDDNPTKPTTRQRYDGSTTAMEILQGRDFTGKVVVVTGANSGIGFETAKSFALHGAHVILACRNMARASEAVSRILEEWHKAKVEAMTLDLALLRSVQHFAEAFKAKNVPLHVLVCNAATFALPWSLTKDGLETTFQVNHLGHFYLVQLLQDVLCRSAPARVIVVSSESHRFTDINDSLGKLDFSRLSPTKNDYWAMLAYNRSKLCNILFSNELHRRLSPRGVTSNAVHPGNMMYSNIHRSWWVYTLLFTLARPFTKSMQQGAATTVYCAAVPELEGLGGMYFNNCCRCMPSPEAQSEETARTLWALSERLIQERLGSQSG
B2: WW domain-containing oxidoreductase (Homo sapiens), Q9NZC7 (parent)
chain: B1 partner
partner: B1 chain

Variants of: B1
Details: with wwox_human WWOX, Q9NZC7

| Variant | effect of a mutation on the interaction |
| --- | --- |
| MRRQPAKVAALLLGLLLECTEAKKHCWYFEGLYPTYYICRSYEDCCGSRCCVRALSIQRLWYFWFLLMMGVLFCCGAGFFIRRRMYPPPLIEEPAFNVSYTRQPPNPGPGAQQPGPPYATDPGGPGMNPVGNSMAMAFQVPPNSPQGSVACPPPPAYCNTPPPPYEQVVKAK [Y119A] | with no effect |
| MRRQPAKVAALLLGLLLECTEAKKHCWYFEGLYPTYYICRSYEDCCGSRCCVRALSIQRLWYFWFLLMMGVLFCCGAGFFIRRRMYPPPLIEEPAFNVSYTRQPPNPGPGAQQPGPPYYTDPGGPGMNPVGNSMAMAFQVPPNSPQGSVACPPPPAYCNTPPPPAEQVVKAK [Y165A] | decreasing interaction strength |
| MRRQPAKVAALLLGLLLECTEAKKHCWYFEGLYPTYYICRSYEDCCGSRCCVRALSIQRLWYFWFLLMMGVLFCCGAGFFIRRRMYPPPLIEEPAFNVSYTRQPPNPGPGAQQPGPPYYTDPGGPGMNPVGNSMAMAFQVPPNSPQGSVACPPPPAACNTPPPPYEQVVKAK [Y157A] | decreasing interaction strength |

Variants of: B1
Details: with wwox_human WWOX

| Variant | effect of a mutation on the interaction |
| --- | --- |
| MRRQPAKVAALLLGLLLECTEAKKHCWYFEGLYPTYYICRSYEDCCGSRCCVRALSIQRLWYFWFLLMMGVLFCCGAGFFIRRRMYPPPLIEEPAFNVSYTRQPPNPGPGAQQPGPPYYTDPGGPGMNPVGNSMAMAFQVPPNSPQGSVACPPPPAYCNTPPPPAEQVVKAK [Y165A] | disrupting interaction strength |

Variants of: B2
Details: with vopp1_human VOPP1, Q96AW1

| Variant | effect of a mutation on the interaction |
| --- | --- |
| MAALRYAGLDDTDSEDELPPGWEERTTKDGWVRYANHTEEKTQWEHPKTGKRKRVAGDLPYGWEQETDENGQVFFVDHINKRTTYLDPRLAFTVDDNPTKPTTRQRYDGSTTAMEILQGRDFTGKVVVVTGANSGIGFETAKSFALHGAHVILACRNMARASEAVSRILEEWHKAKVEAMTLDLALLRSVQHFAEAFKAKNVPLHVLVCNAATFALPWSLTKDGLETTFQVNHLGHFYLVQLLQDVLCRSAPARVIVVSSESHRFTDINDSLGKLDFSRLSPTKNDYWAMLAYNRSKLCNILFSNELHRRLSPRGVTSNAVHPGNMMYSNIHRSWWVYTLLFTLARPFTKSMQQGAATTVYCAAVPELEGLGGMYFNNCCRCMPSPEAQSEETARTLWALSERLIQERLGSQSG [Y33R] | disrupting interaction strength |
